Test results taken from patent US20220195067A1 (LAMKAP BIO BETA, published 2022).
Substitutions are numbered along the chain they refer to. Values belong to the binder of their own block, whether it stands above or below them.

Tests used:
[1] = biological target: T1, recombinant human CEACAM5 Extra Cellular Domain (ECD) soluble protein (human, UniProt P06731 35-685, biotinylated in the competition ELISA of Example 4); assay: BLI (Octet), from Table 2
T1 construct: extracellular domain; also called rec. hCEACAM5; recombinant soluble human CEACAM5; not shown: C-terminal Avitag and hexa-histidine tag, or a human Fc or a mouse Fc region; which construct stood in each assay is not
T1 sequence (looked up): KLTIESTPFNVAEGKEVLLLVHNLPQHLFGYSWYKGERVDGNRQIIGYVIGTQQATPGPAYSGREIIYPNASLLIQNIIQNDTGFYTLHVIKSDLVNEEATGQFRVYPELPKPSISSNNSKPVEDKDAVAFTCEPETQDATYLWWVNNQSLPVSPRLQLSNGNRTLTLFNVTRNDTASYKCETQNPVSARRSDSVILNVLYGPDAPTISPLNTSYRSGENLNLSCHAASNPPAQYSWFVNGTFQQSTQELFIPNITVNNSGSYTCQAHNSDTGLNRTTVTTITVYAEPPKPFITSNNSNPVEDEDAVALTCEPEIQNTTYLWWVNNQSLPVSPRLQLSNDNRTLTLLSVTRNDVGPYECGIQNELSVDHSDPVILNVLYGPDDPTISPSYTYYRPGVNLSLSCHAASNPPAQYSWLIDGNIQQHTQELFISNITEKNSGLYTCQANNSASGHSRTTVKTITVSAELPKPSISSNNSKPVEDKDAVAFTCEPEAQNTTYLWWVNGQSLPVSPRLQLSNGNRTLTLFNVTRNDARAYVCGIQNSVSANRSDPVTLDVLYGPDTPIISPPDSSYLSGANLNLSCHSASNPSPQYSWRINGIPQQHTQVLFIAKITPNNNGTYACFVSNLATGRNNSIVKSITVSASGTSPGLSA
Procedure: (§1) The affinity of the anti-human CEACAM5 arm of the CD47×CEACAM5 bispecific antibodies of the invention for recombinant soluble human CEACAM5 was determined using the Bio-Layer Interferometry (BLI) technology. An OctetRED96 instrument and Protein A biosensors were used (Sartorius). The measurement was performed at 30° C. After hydration, pre-conditioning and a baseline step in Kinetic buffer (PBS, 0.002% Tween 20, 0.01% BSA, Kathon; Sartorius), biosensors were loaded for 5 min with the κλ body at 0.5 μg/mL in Kinetic buffer. Then, biosensors were dipped into a serial dilution of recombinant human CEACAM5 Extra Cellular Domain (ECD) soluble protein (produced in house), starting at 50 nM with a 2× dilution factor. The association and dissociation phases were monitored for 600 seconds each. Biosensors were regenerated using 10 mM glycine pH 1.7. A standard acquisition rate was applied (5.0 Hz, averaging by 20). Curves were processed with a reference well subtraction, a Y alignment on the baseline, without interstep correction. The affinity was measured applying a 1:1 global fitting model on the full association and dissociation steps. The binding affinity (KD) of the bispecific antibodies of the invention to recombinant human CD47 was determined by the same experimental procedure.
(§2) The affinity of the anti-human CEACAM5 arms of the CD47×CEACAM5 bispecific antibodies of the invention for recombinant soluble human CEACAM3 was determined using the Bio-Layer Interferometry (BLI) technology and an OctetRED96 instrument. HIS1K biosensors (Sartorius), loaded with an anti-His tag antibody, were used to capture his-tagged recombinant huCEACAM3 (R&D Systems, #9868-CM). The measurement was performed at 30° C. After hydration, pre-conditioning and a baseline step in Kinetic buffer (PBS, 0.002% Tween 20, 0.01% BSA, Kathon; Sartorius), biosensors were loaded for 5 min with the recombinant huCEACAM3 at 5 μg/mL in Kinetic buffer. Then, biosensors were dipped into a serial dilution of k bodies, starting at 667 nM with a 2× dilution factor. The association and dissociation phases were monitored for 60 seconds and 120 seconds respectively. Biosensors were regenerated using 10 mM glycine pH 1.7.

[2] = biological target: T2, his-tagged recombinant huCEACAM3 (R&D Systems, #9868-CM) (human, UniProt P40198 35-155); assay: BLI (Octet), from Table 2
T2 construct: Bought reagent; also called rec. hCEACAM3; recombinant soluble human CEACAM3; not shown: His tag
T2 sequence (looked up): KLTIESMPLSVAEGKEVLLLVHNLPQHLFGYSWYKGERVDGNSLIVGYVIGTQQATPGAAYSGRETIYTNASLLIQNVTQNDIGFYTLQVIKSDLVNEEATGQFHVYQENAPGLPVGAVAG
Procedure: as §1, §2

[3] = biological target: T1, recombinant human CEACAM5 Extra …; assay: BLI (Octet), antibody on Protein A biosensor, soluble CEACAM5 ECD as analyte
Procedure: as §1

[4] = biological target: T3, human CEACAM5 on CEACAM5-expressing cancer cell lines (human, UniProt P06731 35-685); assay: flow cytometry on SNU-C1 cells (carry CEACAM5 and CD47), PE anti-human IgG Fc
T3 construct: whole, on cells; also called CEACAM5 on SK-CO-1, MKN-45, HPAF-II, SNU-C1, Ls174T, LoVo cells
T3 sequence (looked up): T1 sequence (looked up)
Procedure: (§3) The binding of CD47×CEACAM5 bispecific antibodies was tested on CEACAM5-expressing human gastric adenocarcinoma cells (e.g. MKN-45), on CEACAM5-expressing human colorectal cancer cells (SK-CO-1, SNU-C1, Ls174T, and LoVo), and on CEACAM5-expressing pancreatic adenocarcinoma cells (HPAF-II).
(§4) Cells were harvested, counted, checked for viability and resuspended at 3×10⁶ cells/ml in FACS buffer (PBS 2% BSA, 0.1% NaN3). 100 μl of the cell suspension was distributed in V-bottom 96-well plates (3×10⁵ cells/well). The supernatant was removed by centrifugation 3 minutes at 4° C., 1300 rpm. Increasing concentrations of the antibody according to the invention were then added into the wells and incubated for 15 minutes at 4° C. Cells were washed twice with cold FACS buffer and re-incubated for further 15 minutes at 4° C. with the PE (R-phycoerythrin)-conjugated mouse anti-human IgG Fc secondary antibody (SouthernBiotech, pre-diluted 1:100 in FACS buffer). Cells were washed twice with cold FACS buffer and resuspended in 300 μl FACS buffer with 1:15000-diluted SytoxBlue (Life Technologies). Fluorescence, specifically mean fluorescence […] (MFI), was determined using a Cytoflex […] flow cytometer. Binding curves and […] and Emax values were obtained and calculated using GraphPad Prism7 software.

[5] = biological target: T3, human CEACAM5 on CEACAM5-expressing …; assay: flow cytometry on HPAF-II cells (carry CEACAM5 and CD47), PE anti-human IgG Fc
Procedure: as §3, §4

- fold higher binding affinity (KD) compared to K2AC22 [1]: 46 fold
- fold higher binding affinity (KD) compared to K2AC22 [2]: 28 fold
- Kd [3]: 2.63 nM
- EC50 [4]: 2.47 nM
- Emax (MFI) [4]: 370000 MFI
- EC50 [5]: 8.7 nM
- Emax (MFI) [5]: 1.27e+06 MFI
B1: K2AC84 (bispecific antibody, human IgG1, kappa, lambda)
heavy: not shown
light 1: QSVLTQPPSVSAAPGQKVTISCSGSSSNIGIGLVSWYQQLPGTAPKLLIYNVNTRPSGIPDRFSGSKSGTSATLGITGLQTGDEADYYCGTWDFSYRVDFGGGTKLTVLGQPKAAPSVTLFPPSSEELQANKATLVCLISDFYPGAVTVAWKADSSPVKAGVETTTPSKQSNNKYAASSYLSLTPEQWKSHRSYSCQVTHEGSTVEKTVAPTECS
light 2: not shown
notes: Kappa-lambda body; also called CD47xCEACAM5 bispecific antibody K2AC84; AC84 (CEACAM5 arm)

- Kd [3]: 120 nM
- EC50 [4]: 10.7 nM
- Emax (MFI) [4]: 240000 MFI
- EC50 [5]: 19.3 nM
- Emax (MFI) [5]: 670000 MFI
B2: K2AC22 (bispecific antibody, human IgG1, kappa, lambda)
heavy: not shown
light 1: B1 light 1 with G30A, I31N, L33I, N51F, V52D, T54L, R97G, V98I, D99V
light 2: not shown
notes: Kappa-lambda body, human IgG1, one arm for CEACAM5 and one for CD47; comparison antibody from WO2019234576; also called state of the art bispecific CEAxCD47 antibody K2AC22; CD47xCEACAM5 bispecific antibody K2AC22

- fold higher binding affinity (lower KD) compared to K2AC22 [1]: 25 fold
- fold higher binding affinity (lower KD) compared to K2AC22 [2]: 14 fold
- Kd [3]: 4.8 nM
- EC50 [4]: 3.27 nM
- Emax (MFI) [4]: 300000 MFI
- EC50 [5]: 8 nM
- Emax (MFI) [5]: 1.1e+06 MFI
B3: K2AC100 (bispecific antibody, human IgG1, kappa, lambda)
heavy: not shown
light 1: B1 light 1 with I31Y, V52G, T54I
light 2: not shown
notes: Kappa-lambda body; also called CD47xCEACAM5 bispecific antibody K2AC100; AC100 (CEACAM5 arm)
